Earlier results, collected in publication PMC4067574.
Read-outs that look alike come from different tables or passages of the source.

Legend:
[1] = target: C3b C3b (Homo sapiens) (UniProt P01024)
[2] = target: C3b C3b (Homo sapiens) (UniProt P01024); remark: listed apart in the source

Sequence of C3b C3b (Homo sapiens) (P01024 566-670): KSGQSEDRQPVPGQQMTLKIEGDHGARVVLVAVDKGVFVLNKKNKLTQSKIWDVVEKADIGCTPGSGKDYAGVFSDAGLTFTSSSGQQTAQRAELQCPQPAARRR
Sequence of complement factor H rFH1-4 N-terminal modules 1-4 (P08603 19-264): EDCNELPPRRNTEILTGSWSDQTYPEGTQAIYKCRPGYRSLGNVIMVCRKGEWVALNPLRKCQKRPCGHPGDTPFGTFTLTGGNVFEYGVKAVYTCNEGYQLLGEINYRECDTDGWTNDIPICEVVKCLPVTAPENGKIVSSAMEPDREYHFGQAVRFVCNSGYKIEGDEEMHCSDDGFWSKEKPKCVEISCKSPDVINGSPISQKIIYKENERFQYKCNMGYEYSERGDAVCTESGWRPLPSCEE
Sequence of complement factor H C-terminal fragment C-terminal two modules (P08603 1103-1231): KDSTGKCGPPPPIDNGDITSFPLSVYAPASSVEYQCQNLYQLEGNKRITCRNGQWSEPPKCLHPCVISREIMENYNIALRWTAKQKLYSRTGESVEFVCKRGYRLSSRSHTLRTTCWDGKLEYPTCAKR

Substance	Kd [1]	Kd [2]
complement factor H C-terminal fragment C-terminal two modules (from UniProt P08603)	4 µM	–
complement factor H rFH1-4 N-terminal modules 1-4 (from UniProt P08603)	–	10 µM
